Results published in article doi:10.1101/2024.05.01.590489 (bioRxiv, 2024).

Target: AAV9 capsid (adeno-associated virus serotype 9 (AAV9), UniProt Q6JC40)
Assay: far-Western, overlay or dot blot

Binder | binding result
mAb2-4 (antibody, V domains shown) VH: EVQLLESGGGLVHPGGSLRLSCAASGFPFSNFAMSWVRQAPGKGLEWVSTISGSSGSTYYADSVRGRFTISRDYSKNTVYLEMNSLRADDTAIYYCAKDRMITFGEVIVKHYDAFEIWGQGTRVAV VL: DIQMTQSPSSLSASVGDRVTITCRASQTISTNVNWYQQKPGKAPKLLIYAASSLQSGVPSRFSGSGSGTDFTLTISSLQPEDFATFYCQQSYSAPLTFGEGTKV | binds
mAb3-5 (antibody, V domains shown) VH: EVQLVESGGGLVQPGGSLRLSCAASGFTFSNYGMNWVRQAPGKGLEWVSYISSGGTIYYADSVKGRFTISRDNAKNSVYLQMNSLRAEDTAVYYCARDPAYCGDDCYTIPAHYFDYWGQGTPVTVS VL: DIQMTQSPSSLSASVGDRVTITCRTSQSISRYLNWYQQKPGKAPKLLIYAASSLQSGVPSRFTGSGSGTDFTLTISSLQPEDFATYYCQQSYSIPPVTFGQGTRVD | binds
mAb3-6 (antibody, V domains shown) VH: EVQLVESGGGLVQPGGSLRLSCSASGFHFSSYEMNWVRQAPGKGLEWVSYISSSGTYIDYADSVKGRFTISRDNPANSLYLQMYSLRAEDTAVYYCARRLWFGELPYSYYYGMDVWGQGTTVTVSS VL: ALTQPASVSGSPGQSITISCTGTSSDIGGYNYVSWYQQHPGKAPELLIFDVSNRPSGVSNRFSGSKSGNTASLTISGLQAEDEADYHCCSYTRTSTVIFGGGTKLTVL | binds
mAb3-3 (antibody, V domains shown) VH: QVQLQESGPGLVKSSETLSLTCTVSGESISSSSHYWGWIRQPPGKGLEFLGNVYYLGSTYYNPSLESRVTILLDTSKNQFSLKVNSVTVADTAVYYCARHGAGSYSGLFFDYWGQGARVIVSS VL: DIQMTQSPSFVSASVGDRVNITCRASQGINSWLAWYQQKPGKAPKLLIYSASSLQSGVPSRFSGSGSGTDFTLTISTLQPEDFATYYCQQANSFPYTFGQGTKVD | binds
mAb3-4 (antibody, V domains shown) VH: AVESGGGLVKPGGPLRLSCAASGFSLSDNYMTWIRQAPGKGLEWVSYISSSGSFINYADSVKGRFTISRDNAKNSLYLQMNSLRAEDTAVYYCARVLSSGGLTTSWRALWYFDVWGRGTLVTVS VL: TVVTQEPSFSVSPGGTVTLTCGLTSGSVSTSYYPSWYQQTPGQTPRTLIYSTNIRSSGVPDRFSGSILGNKAALTITGAQADDECDYYCVLYMGSGIWVFGGGTKLTVL | binds
mAb2-6 (antibody, V domains shown) VH: VQLLESGGALVQPGGSLRLSCAASGFSFSNYAMSWVRQAPGKGLEWVSTISASGGTTYFADSVKGHFTISRDNSKNTLYLQMDSLRAEDTAVYYCAKDPNYYDLSGYFLGGYYFDYWGQGTLVTVSS VL: EIVLTQSPGTLSLSPGERATLSCRASQSVRSSYLAWYQQKPGQAPRLLIYGASSRATDIPDRFSGSGSGTDFTLTISRLEPEDFAVYYCQQYGTSPAFGGGTKV | binds
mAb3-7 (antibody, V domains shown) VH: QVQLQESGPGLVKPSETLSLTCTVSGGSISNYYWNWIRQPPGKGLEWIGYVHYSGSTNYNPSLKSRVSVSVDTSKNQFSLNLGSVTAADTAVYYCARQSRSYYNEVITDPKYNFDYWGQGTLVTVSS VL: QSALTQPASVSGSPGQSITISCTGTSSDVGGYDYVSWYQQHPGKAPKLMIYDVSNRPSGVSNRFSGSKSGNTASLTISGLQAEDEADYYCSSYTSISTLVFGGGTKLTVL | binds
mAb3-1 (antibody, V domains shown) VH: EVQLLESGGGLVQPGGSLRLSCEASGFTFSRYPMNWVRQAPGKGLEWVSHISASGGTTYYADTVKGRFSISRDNSKNTLYLEMNSLRAEDTAIYFCAKDYPPDEVTMIVVGMPYFDSWGLGTLVSVSS VL: not shown | binds
mAb2-5 (antibody, V domains shown) VH: EVQLVESGGGLVKPGGSPRLSCAASGFNFGSYSMNWVRQAPGKGLEWVSSISSSSSYIYYADSVKGRFTISRDNAKHSLYLQVNSLRAEDTAVYYCARDPTTYGYNSAWDKKGWYFDLWGRGTLLTVS VL: VLTQPPSVSAAPGQMVTISCSGSSSNIGNDYISWYQQLPGTAPKLLIYDNNERPSGIPDRFSGSKSGTSATLGITGVQTGDEADYYCGTWDSSLSAWVFGEGTKLTVV | binds
mAb3-2 (antibody, V domains shown) VH: EVQLLESGGGLVQPGGSLRLSCAASGFTFSNYAMSWVRQAPGKGLEWVSLISGSGGSIDYADSVKGRFTISRDNSKNTLYLQMDSLRAEDTAVYYCSKDPIYYDLSGYYAGRIYYFDYWGQGTLVTVSS VL: EIVMTQSPATLSVSPGDTATLSCRASHSVSRDLAWYQQKPGQAPRLLIYDASTRATGIPARFSGSGSGTEFTLTISSLQSEDFAVYYCQQYINWVTFGPGTKVDIE | binds
